Sequences and labels used below:
B1: CPEB3 Ribozyme (parent)
chain: GGGGGCCACAGCAGAAGCGUUCACGUCGCGGCCCCUGUCAGAUUCUGGUGAAUCUGCGAAUUCUGCUGU

In this data set the parent is B1. The data set is described as follows: self-cleavage, relative activity (ratio to wild type); higher = more cleavage; co-transcriptional.
On to U38G C54A, for which the self-cleavage was found to be 0.304.
The value for U38A G41C was 0.675.
As to U38G U55A, the self-cleavage is 0.196.
In the case of U38G U55C, the self-cleavage stood at 0.172.
As for U38G U55G, the self-cleavage worked out at 0.283.
The figure for U38C G68A is 0.992; for U38C G68U it is 0.997; for U38C G68C it is 0.975.
Turning to C39A C63U, the self-cleavage stood at 0.776.
For C39A C63G, the self-cleavage came out at 0.407.
The figure for C39A C63A is 0.465; for U38G C66U it is 0.194; for U38G C66G it is 0.229.
On to U38G C66A, for which the self-cleavage came to 0.285.
Take U38C U55A: the self-cleavage was 0.733.
U38C U55C: the self-cleavage came to 0.556.
The value for G37U U46C was 0.292; that for G37U U46A was 0.416.
G37U U46G: the self-cleavage is 0.263.
Turning to U38C U49C, the self-cleavage was found to be 0.999.
With U38C U49G, the self-cleavage was 0.916.
The figure for G37C U49G is 0.234.
G37C U49C: the self-cleavage was determined as 0.286.
On to C39A A42C, for which the self-cleavage was determined as 0.476.
Turning to C39A A42G, the self-cleavage was 0.35.
Turning to U38G G68A, the self-cleavage amounted to 0.259.
Take C39A G68U: the self-cleavage was determined as 0.976.
Take C39A G68C: the self-cleavage turned out to be 0.932.
With U38C U44A, the self-cleavage came to 0.891.
In the case of U38C U44C, the self-cleavage came out at 0.856.
With G37U U44G, the self-cleavage amounted to 0.231.
For the variant G37U U44A, the self-cleavage was 0.213.
The value for G37U G41A was 0.244.
On to G37U G41C, for which the self-cleavage was 0.139.
Consider G37U C45G, for which the self-cleavage came out at 0.286.
Regarding G37U C45U, the self-cleavage amounted to 0.316.
As for G37U U49C, the self-cleavage worked out at 0.335.
Take G37U U49A: the self-cleavage turned out to be 0.258.
Take G37U U49G: the self-cleavage was determined as 0.327.
Take G37C U43A: the self-cleavage was 0.264.
On to G37C U43C, for which the self-cleavage worked out at 0.203.
Turning to U38G C57A, the self-cleavage was 0.161.
For the variant U38G C57U, the self-cleavage was determined as 0.282.
Regarding U38A A51U, the self-cleavage is 0.84.
As for G37U G47C, the self-cleavage was 0.352.
The value for G37U G47U was 0.365; that for G37U G50U was 0.379; that for G37U C54A was 0.227.
The figure for G37U C54G is 0.168; for U38A G48U it is 0.957.
U38A G48A: the self-cleavage is 0.938.
The value for U38A G48C was 0.887; that for G37U A40G was 0.366.
G37U A40C: the self-cleavage came to 0.205.
In the case of U38C U61C, the self-cleavage was 0.57.
With G37C U55G, the self-cleavage turned out to be 0.236.
As for G37C U55C, the self-cleavage amounted to 0.267.
For the variant G37C U55A, the self-cleavage was found to be 0.25.
In the case of G37C U64G, the self-cleavage was 0.205.
As for U38A A40U, the self-cleavage was determined as 0.692.
Consider U38C U69C, for which the self-cleavage is 1.06.
U38C U69A: the self-cleavage is 0.988.
In the case of C39A C57U, the self-cleavage is 0.346.
The value for C39A C57G was 0.327.
U38G G50U: the self-cleavage amounted to 0.271.
For U38A G47C, the self-cleavage turned out to be 0.937.
Turning to U38A G47A, the self-cleavage amounted to 0.916.
In the case of U38A G47U, the self-cleavage was found to be 1.
The value for G37U G48A was 0.388.
The value for G37U G48U was 0.322.
Turning to U38A U67G, the self-cleavage was found to be 0.9.
The value for U38A U67A was 0.941; that for C39A G50U was 0.847; that for C39A G50A was 0.912.
As for C39A G50C, the self-cleavage came to 0.602.
For the variant C39A U43A, the self-cleavage was found to be 0.386.
On to C39A U43C, for which the self-cleavage was 0.517.
Take U38G C39A: the self-cleavage came out at 0.8.
C39A G58A: the self-cleavage was found to be 0.625.
For the variant C39A G58U, the self-cleavage came out at 0.948.
Turning to U38G U43G, the self-cleavage is 0.213.
On to U38G U43C, for which the self-cleavage turned out to be 0.161.
For the variant U38G U43A, the self-cleavage is 0.247.
Take U38A U46G: the self-cleavage is 0.943.
The figure for C39A U61C is 0.328; for C39A U61G it is 0.402.
The value for U38C G50A was 0.948; that for U38C G50C was 0.942; that for U38G C45U was 0.28.
On to U38G C45A, for which the self-cleavage amounted to 0.286.
U38G C63A: the self-cleavage worked out at 0.155.
In the case of U38A U55G, the self-cleavage is 0.758.
The value for U38A U55A was 0.779.
For U38A U55C, the self-cleavage came out at 0.846.
Consider G37U G58C, for which the self-cleavage is 0.279.
With G37U G58U, the self-cleavage stood at 0.362.
Consider U38C A59U, for which the self-cleavage turned out to be 0.316.
For the variant U38G G48C, the self-cleavage was 0.236.
For the variant U38G G48U, the self-cleavage worked out at 0.266.
As to C39A G56U, the self-cleavage is 0.984.
C39A G56C: the self-cleavage was 0.904.
Consider C39A G56A, for which the self-cleavage amounted to 0.898.
As for G37U C63U, the self-cleavage turned out to be 0.271.
The figure for G37U C63A is 0.239.
Regarding G37U C63G, the self-cleavage was found to be 0.312.
For the variant G37U A59U, the self-cleavage is 0.197.
The figure for U38A G68C is 0.927; for U38A G68U it is 0.939; for G37C U38C it is 0.201.
The figure for G37C U38A is 0.246; for U38A G56A it is 0.922; for U38C G41C it is 0.773.
Turning to U38C G41A, the self-cleavage was 0.736.
In the case of C39A A59C, the self-cleavage worked out at 0.386.
On to U38C C63U, for which the self-cleavage turned out to be 0.876.
The value for G37U C66A was 0.267.
Take G37U C66G: the self-cleavage was 0.201.
As to C39A U55G, the self-cleavage was 0.808.
As to C39A U55C, the self-cleavage stood at 0.736.
Consider U38C C66G, for which the self-cleavage was 0.717.
The figure for U38C C66A is 0.687; for U38A A59U it is 0.462.
Turning to U38A A59C, the self-cleavage came to 0.497.
With U38A A59G, the self-cleavage turned out to be 0.939.
U38G U67C: the self-cleavage is 0.302.
As to U38G U67G, the self-cleavage stood at 0.273.
The value for U38G U67A was 0.295.
With C39A C54U, the self-cleavage was determined as 0.765.
The figure for C39A C54G is 0.427.
The figure for C39A C54A is 0.583; for U38G U64G it is 0.25; for U38G U64A it is 0.163.
In the case of U38G U64C, the self-cleavage was determined as 0.235.
The figure for G37U G56C is 0.206; for G37U G56U it is 0.224.
For G37U G56A, the self-cleavage is 0.28.
Consider C39A G48A, for which the self-cleavage was determined as 0.968.
Turning to U38C A40U, the self-cleavage was 0.889.
The figure for U38C A40C is 0.77.
On to U38C A40G, for which the self-cleavage is 0.842.
With C39A A60C, the self-cleavage was found to be 0.286.
The figure for C39A A60G is 0.606; for C39A A60U it is 0.24; for U38C A42U it is 0.827.
The value for U38C A42G was 0.938.
The figure for U38C A42C is 0.885; for C39A G47U it is 0.919; for C39A G47A it is 0.949.
For the variant U38A U53C, the self-cleavage worked out at 0.811.
The figure for U38A U43G is 0.8; for U38A U43C it is 0.9; for U38G A59C it is 0.232.
On to U38G A59G, for which the self-cleavage was determined as 0.132.
C39A U44C: the self-cleavage worked out at 0.432.
Regarding C39A U44A, the self-cleavage turned out to be 0.638.
Consider C39A U44G, for which the self-cleavage came out at 0.562.
On to U38A G58U, for which the self-cleavage amounted to 0.936.
The figure for U38A G58A is 0.848.
Turning to C39A A51G, the self-cleavage was found to be 0.802.
Regarding C39A A51C, the self-cleavage was 0.654.
On to C39A G65A, for which the self-cleavage is 0.478.
For the variant C39A G65C, the self-cleavage was determined as 0.361.
As to C39A G65U, the self-cleavage came out at 0.397.
For U38G G58C, the self-cleavage came to 0.236.
As for U38G G58A, the self-cleavage was found to be 0.257.
The figure for C39A C45U is 0.708.
The figure for C39A C45A is 0.64.

Values taken from the RNAGym collection of RNA variant scans (doi:10.7554/elife.80360).
